Laboratory results published in patent US20220347267A1, “METHODS TO IMPROVE PATIENT RESPONSE TO IMMUNE CHECKPOINT INHIBITORS AND FUNCTIONAL TESTS TO PREDICT RESPONSE” (Biomarker Strategies, LLC, priority 2019, published 2022).

Tests used:
Assay in all cases: PD-L1 flow cytometry, IFNγ modulation
Type in all cases: cell-based, human
H1650 cells = test system: H1650 cells
Description: (§1) Samples (150 uL per tube) were first incubated with a blocking reagent at 1:20 for 15 min at room temperature. Alexa 488-conjugated PD-L1 antibody (CST cat #25048, Lot #2) and Alexa 488-conjugated isotype antibody (CST cat #2975, Lot #16) were added to experimental samples and isotype control samples, respectively, at a manufacturer recommended dilution of 1:50 and the samples were incubated for 30 min at room temperature. Other fluorophore-conjugates and PD-L1 antibodies, including those targeting different epitopes, can be readily used. Additionally, antibodies detecting other biomarkers with appropriate processing (e.g. permeabilization of cells) to predict response (e.g. p-STAT-1) can be used. Following the incubation with an antibody, 1 mL of 2% FBS in PBS was added to each tube to dilute the antibody. Samples were then centrifuged at 200 rcf for 5 min. Supernatant was carefully aspirated and 200 uL of 10% neutral buffered formalin (NBF) was added. Samples were then fixed for 10 min at room temperature. NBF was diluted with 1 mL of 2% FBS in PBS and the samples were centrifuged at 200 rcf for 5 min. Supernatant was aspirated and the cells were resuspended in 0.5 mL of 2% FBS in PBS for flow cytometric analysis. In this experiment, 10% NBF was used to fix cells, but other fixatives, for example, 4% paraformaldehyde can be used.
(§2) Flow cytometry was performed using BDTM LSR II cytometer and BD FACSDiva™ data acquisition software. Any commercially available flow cytometry analysis software can be used, such as FlowJo (BD) and FCS Express (De Novo Software). Additionally, other flow cytometry instruments can be readily used. A total of 20,000 events were recorded for each sample. A Scatter gate was first applied, and a singlet gate was then applied on the scatter population to exclude doublet population. A 488 nm blue laser and a 530 nm detector were used to capture PD-LL signal. Any signal above the isotype control signal of the singlet population was considered PD-L1+(see FIG. 33). Though it was excluded from this experiment, cell viability can be assessed, and dead cells excluded from analysis, using stains such as Live/Dead™ Fixable Dead Cell Stain (Thermo) for fixed cells, or either 7-AAD (7-Aminoactinomycin D) or Propidium Iodide for unfixed cells.
(§3) A percent change in PD-L1+ events between Untreated (non-modulated; vehicle control) and Treated (modulated with IFNγ) samples was calculated for each of the four cell lines tested (Table 2). […] A percent change in PD-L1 signal between Untreated and Treated samples was calculated for each of the four cell lines tested. […] The mean PD-L1 signal was used to calculate the percent change, however, median (as shown in FIGS. 34A-34H), geometric mean, mode or any other averaging method can also be used. To assess the difference in PD-L1 expression level or number of PD-L1+ events between Treated and Untreated samples, either a percent change or fold change can be calculated. Differences in PD-L1 expression level can also be assessed between a control sample with a known PD-L1 level and a clinical sample with an unknown PD-L1 level. To do so, the assay result of modulated and unmodulated clinical samples should be normalized to that of a control sample. A percent change or fold change between modulated and unmodulated samples can then be calculated using the normalized values. Baseline PD-L1 levels, as well as changes to PD-L1 upon modulation, can be used to predict response to therapy. As mentioned in the Methods section above, the antibody against PD-L1 used in this experiment targets extracellular portion of the PD-L1 molecule and as such, permeabilization was not performed. Antibodies such as those that target other PD-L1 domains would yield different PD-L1 expression patterns depending on the form(s) of PD-L1 present in the cell lines tested. Flow cytometry cannot detect PD-L1 molecules that are already secreted and not bound to other cell surfaces proteins. […]

H1299 cells = test system: H1299 cells
Description: as §1, §2, §3

H460 cells = test system: H460 cells
Description: as §1, §2, §3

SKMES1 cells = test system: SKMES1 cells
Description: as §1, §2, §3

[1] = modulated with IFNγ, 20,000 events recorded

B1: IFNγ: human IFNγ, modulator (10 ng/ml; Sigma Aldrich) (protein, UniProt P01579 24-161, looked up)
Interferon gamma: QDPYVKEAENLKKYFNAGHSDVADNGTLFLGILKNWKEESDRKIMQSQIVSFYFKLFKNFKDDQSIQKSVETIKEDMNVKFFNSNKKKRDDFEKLTNYSVTDLNVQRKAIHELIQVMAELSPAAKTGKRKRSQMLFRG
- Mean PD-L1 signal in Singlets, % change (Treated - Untreated)/Untreated (H1650 cells; IFNγ treated vs untreated): 63%
- Mean PD-L1 signal in Singlets, Fold change (Treated/Untreated) (H1650 cells; IFNγ treated vs untreated): 1.63
- Number of Events in PD-L1 + population, % change (Treated - Untreated)/Untreated (H1650 cells; IFNγ treated vs untreated): 266%
- Number of Events in PD-L1 + population, Fold change (Treated/Untreated) (H1650 cells; IFNγ treated vs untreated): 3.66
- Mean PD-L1 signal in Singlets, Treated (H1650 cells; modulated with IFNγ): 714
- Number of Events in PD-L1 + population, Treated (H1650 cells; [1]): 5883
- Mean PD-L1 signal in Singlets, % change (Treated - Untreated)/Untreated (H1299 cells; IFNγ treated vs untreated): 24%
- Mean PD-L1 signal in Singlets, Fold change (Treated/Untreated) (H1299 cells; IFNγ treated vs untreated): 1.24
- Number of Events in PD-L1 + population, % change (Treated - Untreated)/Untreated (H1299 cells; IFNγ treated vs untreated): 71%
- Number of Events in PD-L1 + population, Fold change (Treated/Untreated) (H1299 cells; IFNγ treated vs untreated): 1.71
- Mean PD-L1 signal in Singlets, Treated (H1299 cells; modulated with IFNγ): 538
- Number of Events in PD-L1 + population, Treated (H1299 cells; [1]): 3462
- Mean PD-L1 signal in Singlets, % change (Treated - Untreated)/Untreated (H460 cells; IFNγ treated vs untreated): 20%
- Mean PD-L1 signal in Singlets, Fold change (Treated/Untreated) (H460 cells; IFNγ treated vs untreated): 1.20
- Number of Events in PD-L1 + population, % change (Treated - Untreated)/Untreated (H460 cells; IFNγ treated vs untreated): 4%
- Number of Events in PD-L1 + population, Fold change (Treated/Untreated) (H460 cells; IFNγ treated vs untreated): 1.04
- Mean PD-L1 signal in Singlets, Treated (H460 cells; modulated with IFNγ): 1646
- Number of Events in PD-L1 + population, Treated (H460 cells; [1]): 13382
- Mean PD-L1 signal in Singlets, % change (Treated - Untreated)/Untreated (SKMES1 cells; IFNγ treated vs untreated): 22%
- Mean PD-L1 signal in Singlets, Fold change (Treated/Untreated) (SKMES1 cells; IFNγ treated vs untreated): 1.22
- Number of Events in PD-L1 + population, % change (Treated - Untreated)/Untreated (SKMES1 cells; IFNγ treated vs untreated): 3%
- Number of Events in PD-L1 + population, Fold change (Treated/Untreated) (SKMES1 cells; IFNγ treated vs untreated): 1.03
- Mean PD-L1 signal in Singlets, Treated (SKMES1 cells; modulated with IFNγ): 4228
- Number of Events in PD-L1 + population, Treated (SKMES1 cells; [1]): 1772
